According to the supplement of paper PMC10567573:

B1: TPRG1 (parent)
chain: ETIQGFWLLTKIDHWNNEKERILL
B2: PTPLAD1 (parent)
chain: YSFYMLTCIDMDWKVLTWLRYTLW

Variants of: B1
Test: protein stability index of a GFP-peptide fusion (GPS, HEK-293T) (PSI 1-6); higher = more stable
Details: c terminus: a fixed tail appended
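Also: lentivirally expressed fusions sorted by FACS into six bins by GFP to DsRed ratio, PSI derived from sequencing read proportions per bin multiplied by bin number.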

Protein stability index of substitutions, site by site:
T2: H 1.67; C 1.55; E 2.51; L 1.67; P 1.61; Q 2.82; K 2.22; R 3.03; N 2.16; Y 3.19; D 1.91
W7: A 1.91; G 2.31; E 1.93; D 2.25; C 3.25
F6: M 1.48; D 1.72; N 2.11; S 2.37; G 1.97; Q 1.91; K 1.3; H 1.94; P 1.74; C 3.16; E 2.25; R 1.91; T 2.69; W 1.12; V 2.36; Y 2.51
I3: L 1.53; Q 1.99; C 2.25; P 2.05; N 1.71; E 2.04; T 2.18; R 1.88; G 2.14; Y 2.55; V 3.9; S 1.28; D 1.39
E1: D 2.8; L 4.7; V 4.74; H 2.48; S 2.85; I 3.09; T 1.82; A 2.75; P 2.65; Q 3.37; N 2.13
Q4: Y 2.77; M 3.23; G 2.68; H 1.97; K 2.89; N 1.82; D 3.98; P 3.54; T 1.88; E 2.23
G5: K 2.04; Q 1.98; S 2; H 2.36; P 2.33; Y 2.95; C 3.97; W 3.06; L 1.38; I 1.69

Variants of: B2
Test: as above
Details: c terminus: a fixed tail appended

Protein stability index, by site and new letter:
W18: H 4.4; Q 2.11; I 3.65; T 3.35; F 3.34; M 1.84; A 2.61; K 3.24; D 1.68; V 2.83
L23: A 3.26; I 2.88; R 4.16; W 2.4; T 4.8; C 4.3; E 2.74; F 2.46; H 2.58; S 2.99; D 2.6; P 4.2; Q 3.84
T22: M 2.12; R 2.25; Q 2.2; V 1.99; A 2.78; Y 2.26; F 2.08; H 2.85; N 2.27; C 2.07
Y21: I 2.98; Q 2.17; W 1.84; C 4.75; V 2.28; G 3.32; F 2.66; S 3.16; E 3.44; L 3.2; R 2.05; N 4.05
L19: H 2.65; Y 2.91; F 3.32; W 2.31; A 2.9; I 2.06; E 2.83; R 2.4; M 1.93; K 2.22; S 1.22; D 4.18; N 3.55; Q 3.25; P 3.35
R20: V 2.13; M 2.04; K 3.46; L 1.23; A 2.88; N 4.06; F 1.28; Y 2.42; H 4.19; T 3.6; G 3; P 3.84; C 1.52; I 1.69; W 1.06
T17: Y 1.8; W 2.66
W24: M 3.14; N 2.55; E 2.77; R 2.04; H 3.02; P 2.58; G 2.39; K 1.37; I 3.4; D 4.01; C 2.42; Y 2.72; A 2.83; F 2.24
